Laboratory results as given in the supplement of paper PMC10567573.

B1: MNAT1 (parent)
chain: SLREYNDFLEEVEEIVFNLTNNVD
B2: SPOPL (parent)
chain: AKREETKAMESQRAYRFVQGKDWG

Variants of: B1
Assay: protein stability index of a GFP-peptide fusion (GPS, HEK-293T) (PSI 1-6); higher = more stable
Conditions: c terminus: a fixed tail appended
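Also: lentivirally expressed fusions sorted by FACS into six bins by GFP to DsRed ratio, PSI derived from sequencing read proportions per bin multiplied by bin number.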

Variant	protein stability index
MLREYNDFLEEVEEIVFNLTNNVD [S1M]	1.82
VLREYNDFLEEVEEIVFNLTNNVD [S1V]	2.1
QLREYNDFLEEVEEIVFNLTNNVD [S1Q]	2.81
NLREYNDFLEEVEEIVFNLTNNVD [S1N]	3.35
LLREYNDFLEEVEEIVFNLTNNVD [S1L]	1.87
PLREYNDFLEEVEEIVFNLTNNVD [S1P]	3.1
KLREYNDFLEEVEEIVFNLTNNVD [S1K]	1.94
FLREYNDFLEEVEEIVFNLTNNVD [S1F]	2.67
TLREYNDFLEEVEEIVFNLTNNVD [S1T]	1.85
ELREYNDFLEEVEEIVFNLTNNVD [S1E]	2.03
WLREYNDFLEEVEEIVFNLTNNVD [S1W]	2.11
CLREYNDFLEEVEEIVFNLTNNVD [S1C]	1.72
YLREYNDFLEEVEEIVFNLTNNVD [S1Y]	1.69
HLREYNDFLEEVEEIVFNLTNNVD [S1H]	2.24
ALREYNDFLEEVEEIVFNLTNNVD [S1A]	2.1
RLREYNDFLEEVEEIVFNLTNNVD [S1R]	2.21
DLREYNDFLEEVEEIVFNLTNNVD [S1D]	2.62
ILREYNDFLEEVEEIVFNLTNNVD [S1I]	2.23
SDREYNDFLEEVEEIVFNLTNNVD [L2D]	3.33
SCREYNDFLEEVEEIVFNLTNNVD [L2C]	2.67
SAREYNDFLEEVEEIVFNLTNNVD [L2A]	2.58

Variants of: B2
Assay: as above
Conditions: c terminus: a fixed tail appended

Variant	protein stability index
AKREETKAMESQRAYRFWQGKDWG [V18W]	2.43
AKREETKAMESQRAYRFFQGKDWG [V18F]	3.32
AKREETKAMESQRAYRFAQGKDWG [V18A]	4.22
AKREETKAMESQRAYRFCQGKDWG [V18C]	3.51
AKREETKAMESQRAYRFEQGKDWG [V18E]	4.15
AKREETKAMESQRAYRFQQGKDWG [V18Q]	3.16
AKREETKAMESQRAYRFNQGKDWG [V18N]	4.14
AKREETKAMESQRAYRFRQGKDWG [V18R]	3.99
AKREETKAMESQRAYRFPQGKDWG [V18P]	4.07
AKREETKAMESQRAYRFMQGKDWG [V18M]	3.42
AKREETKAMESQRAYRFHQGKDWG [V18H]	2.84
AKREETKAMESQRAYRFLQGKDWG [V18L]	3.51
AKREETKAMESQRAYRFKQGKDWG [V18K]	4.13
AKREETKAMESQRAYRFDQGKDWG [V18D]	4.05
AKREETKAMESQRAYRFIQGKDWG [V18I]	2.66
AKREETKAMESQRAYRFSQGKDWG [V18S]	4.19
AKREETKAMESQRAYRFTQGKDWG [V18T]	3.96
AKREETKAMESQRAYRFGQGKDWG [V18G]	3.67
AKREETKAMESQRAYRFYQGKDWG [V18Y]	3.78
AKREETKAMESQRAYRFVNGKDWG [Q19N]	2.85
AKREETKAMESQRAYRFVYGKDWG [Q19Y]	2.77
AKREETKAMESQRAYRFVTGKDWG [Q19T]	2.73
AKREETKAMESQRAYRFVVGKDWG [Q19V]	2.37
AKREETKAMESQRAYRFVRGKDWG [Q19R]	3.93
AKREETKAMESQRAYRFVEGKDWG [Q19E]	2.6

Variant	protein stability index
AKREETKAMESQRAYRFVFGKDWG [Q19F]	3.19
AKREETKAMESQRAYRFVMGKDWG [Q19M]	2.25
AKREETKAMESQRAYRFVCGKDWG [Q19C]	2.68
AKREETKAMESQRAYRFVAGKDWG [Q19A]	1.15
AKREETKAMESQRAYRFVKGKDWG [Q19K]	3.43
AKREETKAMESQRAYRFVWGKDWG [Q19W]	2.38
AKREETKAMESQRAYRFVHGKDWG [Q19H]	3.04
AKREETKAMESQRAYRFVDGKDWG [Q19D]	2.54
AKREETKAMESQRAYRFVSGKDWG [Q19S]	2.44
AKREETKAMESQRAYRFVIGKDWG [Q19I]	2.6
AKREETKAMESQRAYRFVLGKDWG [Q19L]	2.15
AKREETKAMESQRAYRFVPGKDWG [Q19P]	3.22
AKREETKAMESQRAYRFVQGQDWG [K21Q]	3.02
AKREETKAMESQRAYRFVQGPDWG [K21P]	2.4
AKREETKAMESQRAYRFVQGIDWG [K21I]	2.94
AKREETKAMESQRAYRFVQGTDWG [K21T]	3.04
AKREETKAMESQRAYRFVQGADWG [K21A]	2.96
AKREETKAMESQRAYRFVQGEDWG [K21E]	3.46
AKREETKAMESQRAYRFVQGFDWG [K21F]	3.62
AKREETKAMESQRAYRFVQGSDWG [K21S]	2.67
AKREETKAMESQRAYRFVQGRDWG [K21R]	2.51
AKREETKAMESQRAYRFVQGNDWG [K21N]	3.11
AKREETKAMESQRAYRFVQGVDWG [K21V]	3.1
AKREETKAMESQRAYRFVQGWDWG [K21W]	3.44
AKREETKAMESQRAYRFVQGLDWG [K21L]	2.67

Variant	protein stability index
AKREETKAMESQRAYRFVQGMDWG [K21M]	3.43
AKREETKAMESQRAYRFVQGDDWG [K21D]	3.99
AKREETKAMESQRAYRFVQGYDWG [K21Y]	3.08
AKREETKAMESQRAYRFVQGGDWG [K21G]	2.83
AKREETKAMESQRAYRFVQGCDWG [K21C]	3.28
AKREETKAMESQRAYRFVQGHDWG [K21H]	2.32
AKREETKAMESQRAYRFVQGKMWG [D22M]	2.95
AKREETKAMESQRAYRFVQGKPWG [D22P]	3.18
AKREETKAMESQRAYRFVQGKWWG [D22W]	2.55
AKREETKAMESQRAYRFVQGKSWG [D22S]	3.42
AKREETKAMESQRAYRFVQGKFWG [D22F]	2.94
AKREETKAMESQRAYRFVQGKAWG [D22A]	3.14
AKREETKAMESQRAYRFVQGKGWG [D22G]	3.96
AKREETKAMESQRAYRFVQGKYWG [D22Y]	2.76
AKREETKAMESQRAYRFVQGKIWG [D22I]	3.4
AKREETKAMESQRAYRFVQGKVWG [D22V]	3.82
AKREETKAMESQRAYRFVQGKQWG [D22Q]	3.18
AKREETKAMESQRAYRFVQGKEWG [D22E]	3.17
AKREETKAMESQRAYRFVQGKTWG [D22T]	3.86
AKREETKAMESQRAYRFVQGKCWG [D22C]	3.13
AKREETKAMESQRAYRFVQGKRWG [D22R]	4.09
AKREETKAMESQRAYRFVQGKNWG [D22N]	2.74
AKREETKAMESQRAYRFVQGKKWG [D22K]	3.77
